# Laboratory results reported in patent publication US20210316007A1 (DUKE UNIVERSITY, published 2021).
# B1: ABDN-ELP (albumin binding domain N fused to the N-terminus of ELP) (designed binder)
# chain: LAEAKVLANRELDKYGVSDYYKNLINNAKTVEGVKALIDEILAALPVPGAGVPGAGVPGAGVPGAGVPGAGVPGAGVPGAGVPGAGVPGAGVPGAGVPGAGVPGAGVPGAGVPGAGVPGAGVPGAGVPGAGVPGAGVPGAGVPGAGVPGAGVPGAGVPGAGVPGAGVPGAGVPGAGVPGAGVPGAGVPGAGVPGAGVPGAGVPGAGVPGAGVPGAGVPGAGVPGAGVPGAGVPGAGVPGAGVPGAGVPGAGVPGAGVPGAGVPGAGVPGAGVPGAGVPGAGVPGAGVPGAGVPGAGVPGAGVPGAGVPGAGVPGAGVPGAGVPGAGVPGAGVPGAGVPGAGVPGAGVPGAGVPGAGVPGAGVPGAGVPGAGVPGAGVPGAGVPGAGVPGAGVPGAGVPGAGVPGAGVPGAGVPGAGVPGAGVPGAGVPGAGVPGAGVPGAGVPGAGVPGAGVPGAGVPGAGVPGAGVPGAGVPGAGVPGAGVPGAGVPGAGVPGAGVPGAGVPGAGVPGAGVPGAGVPGAGVPGAGVPGAGVPGAGVPGAGVPGAGVPGAGVPGAGVPGAGVPGAGVPGAGVPGAGVPGAGVPGAGVPGAGVPGAGVPGAGVPGAGVPGAGVPGAGVPGAGVPGAGVPGAGVPGAGVPGAGVPGAGVPGAGVPGAGVPGAGVPGAGVPGAGVPGAGVPGAGVPGAGVPGAGVPGAGVPGAGVPGAGVPGAGVPGAGVPGAGVPGAGVPGAGVPGAGVPGAGVPGAGVPGAGVPGAGVPGAGVPGAGVPGAGVPGAGCGGCGGCGGCGGCGGCGGCGGCGG
# notes: Unconjugated monomer, 68.5 kDa by SDS-PAGE; also called ABDN-CP; ABD-CP
# B2: ABDH-ELP (albumin binding domain H, engineered variant of ABDN, fused to the N-terminus of ELP) (designed binder)
# chain: LAEAKVLANRELDKYGVSDFYKRLINKAKTVEGVEALKLHILAALPVPGAGVPGAGVPGAGVPGAGVPGAGVPGAGVPGAGVPGAGVPGAGVPGAGVPGAGVPGAGVPGAGVPGAGVPGAGVPGAGVPGAGVPGAGVPGAGVPGAGVPGAGVPGAGVPGAGVPGAGVPGAGVPGAGVPGAGVPGAGVPGAGVPGAGVPGAGVPGAGVPGAGVPGAGVPGAGVPGAGVPGAGVPGAGVPGAGVPGAGVPGAGVPGAGVPGAGVPGAGVPGAGVPGAGVPGAGVPGAGVPGAGVPGAGVPGAGVPGAGVPGAGVPGAGVPGAGVPGAGVPGAGVPGAGVPGAGVPGAGVPGAGVPGAGVPGAGVPGAGVPGAGVPGAGVPGAGVPGAGVPGAGVPGAGVPGAGVPGAGVPGAGVPGAGVPGAGVPGAGVPGAGVPGAGVPGAGVPGAGVPGAGVPGAGVPGAGVPGAGVPGAGVPGAGVPGAGVPGAGVPGAGVPGAGVPGAGVPGAGVPGAGVPGAGVPGAGVPGAGVPGAGVPGAGVPGAGVPGAGVPGAGVPGAGVPGAGVPGAGVPGAGVPGAGVPGAGVPGAGVPGAGVPGAGVPGAGVPGAGVPGAGVPGAGVPGAGVPGAGVPGAGVPGAGVPGAGVPGAGVPGAGVPGAGVPGAGVPGAGVPGAGVPGAGVPGAGVPGAGVPGAGVPGAGVPGAGVPGAGVPGAGVPGAGVPGAGVPGAGVPGAGVPGAGVPGAGVPGAGVPGAGVPGAGVPGAGCGGCGGCGGCGGCGGCGGCGGCGG
# notes: Unconjugated monomer, 68.6 kDa by SDS-PAGE; also called ABDH-CP
# B3: ABD-CP-PTX micelles (paclitaxel-conjugated ABD-chimeric polypeptide) (designed binder)
# chain: LAEAKVLANRELDKYGVSDYYKNLINNAKTVEGVKALIDEILAALPVPGAGVPGAGVPGAGVPGAGVPGAGVPGAGVPGAGVPGAGVPGAGVPGAGVPGAGVPGAGVPGAGVPGAGVPGAGVPGAGVPGAGVPGAGVPGAGVPGAGVPGAGVPGAGVPGAGVPGAGVPGAGVPGAGVPGAGVPGAGVPGAGVPGAGVPGAGVPGAGVPGAGVPGAGVPGAGVPGAGVPGAGVPGAGVPGAGVPGAGVPGAGVPGAGVPGAGVPGAGVPGAGVPGAGVPGAGVPGAGVPGAGVPGAGVPGAGVPGAGVPGAGVPGAGVPGAGVPGAGVPGAGVPGAGVPGAGVPGAGVPGAGVPGAGVPGAGVPGAGVPGAGVPGAGVPGAGVPGAGVPGAGVPGAGVPGAGVPGAGVPGAGVPGAGVPGAGVPGAGVPGAGVPGAGVPGAGVPGAGVPGAGVPGAGVPGAGVPGAGVPGAGVPGAGVPGAGVPGAGVPGAGVPGAGVPGAGVPGAGVPGAGVPGAGVPGAGVPGAGVPGAGVPGAGVPGAGVPGAGVPGAGVPGAGVPGAGVPGAGVPGAGVPGAGVPGAGVPGAGVPGAGVPGAGVPGAGVPGAGVPGAGVPGAGVPGAGVPGAGVPGAGVPGAGVPGAGVPGAGVPGAGVPGAGVPGAGVPGAGVPGAGVPGAGVPGAGVPGAGVPGAGVPGAGVPGAGVPGAGVPGAGVPGAGVPGAGVPGAGVPGAGVPGAGVPGAGVPGAGVPGAGVPGAGVPGAGCGGCGGCGGCGGCGGCGGCGGCGG
# notes: Self-assembled micelle; also called ABDN-CP-PTX
# B4: ABDN-CP-DOX micelles (doxorubicin-conjugated ABDN-chimeric polypeptide) (designed binder)
# chain: LAEAKVLANRELDKYGVSDYYKNLINNAKTVEGVKALIDEILAALPVPGAGVPGAGVPGAGVPGAGVPGAGVPGAGVPGAGVPGAGVPGAGVPGAGVPGAGVPGAGVPGAGVPGAGVPGAGVPGAGVPGAGVPGAGVPGAGVPGAGVPGAGVPGAGVPGAGVPGAGVPGAGVPGAGVPGAGVPGAGVPGAGVPGAGVPGAGVPGAGVPGAGVPGAGVPGAGVPGAGVPGAGVPGAGVPGAGVPGAGVPGAGVPGAGVPGAGVPGAGVPGAGVPGAGVPGAGVPGAGVPGAGVPGAGVPGAGVPGAGVPGAGVPGAGVPGAGVPGAGVPGAGVPGAGVPGAGVPGAGVPGAGVPGAGVPGAGVPGAGVPGAGVPGAGVPGAGVPGAGVPGAGVPGAGVPGAGVPGAGVPGAGVPGAGVPGAGVPGAGVPGAGVPGAGVPGAGVPGAGVPGAGVPGAGVPGAGVPGAGVPGAGVPGAGVPGAGVPGAGVPGAGVPGAGVPGAGVPGAGVPGAGVPGAGVPGAGVPGAGVPGAGVPGAGVPGAGVPGAGVPGAGVPGAGVPGAGVPGAGVPGAGVPGAGVPGAGVPGAGVPGAGVPGAGVPGAGVPGAGVPGAGVPGAGVPGAGVPGAGVPGAGVPGAGVPGAGVPGAGVPGAGVPGAGVPGAGVPGAGVPGAGVPGAGVPGAGVPGAGVPGAGVPGAGVPGAGVPGAGVPGAGVPGAGVPGAGVPGAGVPGAGVPGAGVPGAGVPGAGVPGAGVPGAGVPGAGCGGCGGCGGCGGCGGCGGCGGCGG
# notes: Self-assembled micelle; also called ABD-CP-DOX
# B5: ABDH-CP-DOX micelles (doxorubicin-conjugated ABDH-chimeric polypeptide) (designed binder)
# chain: LAEAKVLANRELDKYGVSDFYKRLINKAKTVEGVEALKLHILAALPVPGAGVPGAGVPGAGVPGAGVPGAGVPGAGVPGAGVPGAGVPGAGVPGAGVPGAGVPGAGVPGAGVPGAGVPGAGVPGAGVPGAGVPGAGVPGAGVPGAGVPGAGVPGAGVPGAGVPGAGVPGAGVPGAGVPGAGVPGAGVPGAGVPGAGVPGAGVPGAGVPGAGVPGAGVPGAGVPGAGVPGAGVPGAGVPGAGVPGAGVPGAGVPGAGVPGAGVPGAGVPGAGVPGAGVPGAGVPGAGVPGAGVPGAGVPGAGVPGAGVPGAGVPGAGVPGAGVPGAGVPGAGVPGAGVPGAGVPGAGVPGAGVPGAGVPGAGVPGAGVPGAGVPGAGVPGAGVPGAGVPGAGVPGAGVPGAGVPGAGVPGAGVPGAGVPGAGVPGAGVPGAGVPGAGVPGAGVPGAGVPGAGVPGAGVPGAGVPGAGVPGAGVPGAGVPGAGVPGAGVPGAGVPGAGVPGAGVPGAGVPGAGVPGAGVPGAGVPGAGVPGAGVPGAGVPGAGVPGAGVPGAGVPGAGVPGAGVPGAGVPGAGVPGAGVPGAGVPGAGVPGAGVPGAGVPGAGVPGAGVPGAGVPGAGVPGAGVPGAGVPGAGVPGAGVPGAGVPGAGVPGAGVPGAGVPGAGVPGAGVPGAGVPGAGVPGAGVPGAGVPGAGVPGAGVPGAGVPGAGVPGAGVPGAGVPGAGVPGAGVPGAGVPGAGVPGAGVPGAGVPGAGVPGAGVPGAGCGGCGGCGGCGGCGGCGGCGGCGG
# notes: Self-assembled micelle; aggregates at 37 °C without albumin
# Experiments:
# mouse serum albumin [1] = molecular target: T1, mouse serum albumin (mouse, UniProt P07724 25-608); test: ITC, MSA titrated into CP-DOX micelles, PBS pH 7.4, 37 °C
# T1 construct: also called MSA; mouse albumin
# T1 sequence (P07724 25-608 limits assumed): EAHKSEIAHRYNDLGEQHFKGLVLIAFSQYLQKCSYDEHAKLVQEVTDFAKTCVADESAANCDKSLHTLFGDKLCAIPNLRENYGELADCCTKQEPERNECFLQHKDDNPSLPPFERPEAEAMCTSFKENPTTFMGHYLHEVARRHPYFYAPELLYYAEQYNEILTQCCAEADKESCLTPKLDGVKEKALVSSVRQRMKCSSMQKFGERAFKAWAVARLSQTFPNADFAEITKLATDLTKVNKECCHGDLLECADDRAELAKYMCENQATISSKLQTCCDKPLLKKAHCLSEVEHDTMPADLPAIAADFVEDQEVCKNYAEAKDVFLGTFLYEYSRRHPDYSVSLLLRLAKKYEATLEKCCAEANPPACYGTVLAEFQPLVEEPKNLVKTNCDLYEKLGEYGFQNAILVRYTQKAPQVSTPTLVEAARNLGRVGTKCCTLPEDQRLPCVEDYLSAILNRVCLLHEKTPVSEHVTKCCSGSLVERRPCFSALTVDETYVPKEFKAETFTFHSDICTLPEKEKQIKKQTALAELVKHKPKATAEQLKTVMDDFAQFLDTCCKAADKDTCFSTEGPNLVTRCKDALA
# mouse serum albumin [2] = molecular target: T1, mouse serum albumin; test: ITC, MSA titrated into ELP, PBS pH 7.4, 37 °C; Example 2 ITC series (FIG. 4A), naked ELP control; fitted N with an error larger than the value
# mouse serum albumin [3] = molecular target: T1, mouse serum albumin; test: ITC (Nano ITC), albumin titrated into construct, PBS, 37 °C; PTX-example ITC series (Table 10), CP without ABD and without drug; µM fit
# human serum albumin [4] = molecular target: T2, human serum albumin (human, UniProt P02768 25-609); test: ITC, HSA titrated into ELP, PBS pH 7.4, 37 °C; Example 2 ITC series (FIG. 3A), naked ELP control; weak µM best-fit KD that the text calls no specific affinity
# T2 construct: also called HSA; human albumin
# human serum albumin [5] = molecular target: T2, human serum albumin; test: ITC, HSA titrated into ELP, PBS pH 7.4, 37 °C; Example 2 ITC series (FIG. 3A), naked ELP control
# mouse serum albumin [6] = molecular target: T1, mouse serum albumin; test: ITC, MSA titrated into ELP, PBS pH 7.4, 37 °C; Example 2 ITC series (FIG. 4A), naked ELP control; weak µM best-fit KD that the text calls no specific affinity
# human serum albumin [7] = molecular target: T2, human serum albumin; test: ITC, HSA titrated into ABDN-ELP, PBS pH 7.4, 37 °C
# Method: (§1) The experiments were performed in phosphate buffered saline (pH 7.4) at 37° C.
# mouse serum albumin [8] = molecular target: T1, mouse serum albumin; test: ITC, MSA titrated into ABDN-ELP, PBS pH 7.4, 37 °C
# Method: as §1
# human serum albumin [9] = molecular target: T2, human serum albumin; test: ITC (Nano ITC), albumin titrated into construct, PBS, 37 °C
# mouse serum albumin [10] = molecular target: T1, mouse serum albumin; test: as above
# mouse serum albumin [11] = molecular target: T1, mouse serum albumin; test: ITC, MSA titrated into ABDH-ELP, PBS pH 7.4, 37 °C
# Method: as §1
# human serum albumin [12] = molecular target: T2, human serum albumin; test: ITC (Nano ITC), albumin titrated into micelles, PBS, 37 °C
# Method: (§2) For PTX conjugates, ITC was conducted using a Nano ITC system (TA Instruments, Utah, USA). […] For background correction, PBS (in the cell) was titrated with albumin (in the syringe) at the same concentrations and conditions. Background was subtracted from the final curves and the binding and thermodynamic parameters binding constant (KD), number of binding sites (n), and enthalpy (ΔH)—were computed by non-linear fitting to an independent-binding site model using TA Instruments NanoAnalyze software.
# mouse serum albumin [13] = molecular target: T1, mouse serum albumin; test: as above
# Method: as §2
# mouse serum albumin [14] = molecular target: T1, mouse serum albumin; test: ITC, MSA titrated into ABDN-CP-DOX micelles, PBS pH 7.4, 37 °C
# Method: as §1
# mouse serum albumin [15] = molecular target: T1, mouse serum albumin; test: ITC, MSA titrated into ABDH-CP-DOX micelles, PBS pH 7.4, 37 °C
# Method: as §1
molecule,measurement,setting,value
CP-DOX micelles (doxorubicin-conjugated chimeric polypeptide without ABD),Kd,mouse serum albumin [1],91900 nM
same,binding stoichiometry N,mouse serum albumin [1],0.0386
ELP (naked elastin-like polypeptide with no ABD at its N-terminus),binding stoichiometry N,mouse serum albumin [2],0.152
same,Kd,mouse serum albumin [3],3500 nM
same,Kd,human serum albumin [4],69000 nM
same,binding stoichiometry N,human serum albumin [5],0.75
same,Kd,mouse serum albumin [6],71400 nM
B1,Kd,human serum albumin [7],48.4 nM
same,Kd,mouse serum albumin [8],66.4 nM
same,Kd,human serum albumin [9],6.47 nM
same,Kd,mouse serum albumin [10],16.3 nM
B2,Kd,mouse serum albumin [11],5.19 nM
B3,Kd,human serum albumin [12],5.58 nM
same,Kd,mouse serum albumin [13],4.37 nM
B4,Kd,mouse serum albumin [14],318 nM
B5,Kd,mouse serum albumin [15],66.1 nM
